In this data set the target is T1, NF-kB p50 (NFKB1) (Homo sapiens) (UniProt P19838).
T1 sequence: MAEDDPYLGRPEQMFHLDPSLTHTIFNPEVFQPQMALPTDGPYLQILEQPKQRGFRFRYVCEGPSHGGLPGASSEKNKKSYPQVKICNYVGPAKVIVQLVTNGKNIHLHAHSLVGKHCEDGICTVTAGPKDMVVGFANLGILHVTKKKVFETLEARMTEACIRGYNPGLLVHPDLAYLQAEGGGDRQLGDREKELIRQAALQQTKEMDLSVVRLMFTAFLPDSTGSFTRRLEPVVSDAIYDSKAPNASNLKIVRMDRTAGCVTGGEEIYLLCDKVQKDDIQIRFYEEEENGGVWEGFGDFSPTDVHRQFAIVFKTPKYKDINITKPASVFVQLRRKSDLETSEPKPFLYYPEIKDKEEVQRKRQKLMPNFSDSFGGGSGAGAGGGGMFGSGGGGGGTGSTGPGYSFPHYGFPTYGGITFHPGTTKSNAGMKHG
Nature of the data set: EMSA. Conditions: saturating p50 monomer (200 nM). (In general: Mobility shift assays separate free from complexed probe on a gel.)

Under “internucleoside phosphotriester triethylene glycol amino linker after T8 of SEQ 1”, “CGGAAAGTCCCTCATAGCT (double strand) [I (ODN2)/Cy5.5-XIX (ODN3)]” came in with a binding signal (% fluorescence co-migrating with p50) of 94.

“TGGAAAGCTTTTTACAGTT (double strand) [ODN4/Cy5.5-ODN5]” had a binding signal (% fluorescence co-migrating with p50) (internucleoside phosphotriester triethylene glycol amino linker after T12 of SEQ 2, truncated site) of 63.

The values above are taken from patent US20090136940.
